Laboratory results from article PMC11417369, “DNA sequence and chromatin differentiate sequence-specific transcription factor binding in the human malaria parasite Plasmodium falciparum”.

Target: T1, AP2-LT D1 (Plasmodium falciparum, UniProt Q8IAM1 2520-2577)
T1 sequence: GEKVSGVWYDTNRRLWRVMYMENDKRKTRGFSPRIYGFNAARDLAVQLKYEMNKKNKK
Test: gcPBM; about 25 ug protein; PBS, 1% milk, 0.2 mg/ml BSA, salmon testes DNA, 0.03% Triton X-100
Conditions: tags: N-terminal GST (pGEX-4T-1), kept; label: surface-attached array probe

Binder	binding signal
CACACA_negctrl_site1347 (dsDNA) DNA 1: ATTTTTTTTTTTTTTTTTTTTTTTTTTTAATCTGGA DNA 2: TCCAGATTAAAAAAAAAAAAAAAAAAAAAAAAAAAT	8.7 ln median PBM intensity, better of two orientations
CACACA_negctrl_site362 (dsDNA) DNA 1: TTATTTTTTCTTTTTTTTCTTACCACAAAAATGGAT DNA 2: ATCCATTTTTGTGGTAAGAAAAAAAAGAAAAAATAA	8.71 ln median PBM intensity, better of two orientations
CACACA_negctrl_site1769 (dsDNA) DNA 1: TTTTTACGTAAACAAAATAATTATATAATATTATTT DNA 2: AAATAATATTATATAATTATTTTGTTTACGTAAAAA	8.71 ln median PBM intensity, better of two orientations
CACACA_negctrl_site283 (dsDNA) DNA 1: ACATTCTGATGGTGATTATTAATTATTACAAAAATT DNA 2: AATTTTTGTAATAATTAATAATCACCATCAGAATGT	8.72 ln median PBM intensity, better of two orientations
CACACA_negctrl_site648 (dsDNA) DNA 1: AAAAAGAAAAAATATATTCGTCTATTATAAACAATA DNA 2: TATTGTTTATAATAGACGAATATATTTTTTCTTTTT	8.72 ln median PBM intensity, better of two orientations
CACACA_negctrl_site500 (dsDNA) DNA 1: TAATTAAAAAATAAAAAAAAAAAAAATTAAAACAAA DNA 2: TTTGTTTTAATTTTTTTTTTTTTTATTTTTTAATTA	8.72 ln median PBM intensity, better of two orientations
CACACA_negctrl_site153 (dsDNA) DNA 1: CTTGGTAGTTTTTTCTTATAATCTAATTATTAATAA DNA 2: TTATTAATAATTAGATTATAAGAAAAAACTACCAAG	8.73 ln median PBM intensity, better of two orientations
CACACA_negctrl_site332 (dsDNA) DNA 1: TCTTTTAAAAATATAAAAAGGAATATATAAAAATGT DNA 2: ACATTTTTATATATTCCTTTTTATATTTTTAAAAGA	8.73 ln median PBM intensity, better of two orientations
CACACA_negctrl_site766 (dsDNA) DNA 1: TTCTTTCTGTTTTATTTATAATAATTTATGATAAAA DNA 2: TTTTATCATAAATTATTATAAATAAAACAGAAAGAA	8.74 ln median PBM intensity, better of two orientations
CACACA_negctrl_site81 (dsDNA) DNA 1: TTCTGTATAATATAAAAACAAAAATTAAATTAAAAC DNA 2: GTTTTAATTTAATTTTTGTTTTTATATTATACAGAA	8.74 ln median PBM intensity, better of two orientations
CACACA_negctrl_site1666 (dsDNA) DNA 1: AAAAAAAAAAAAAAATTAAAGTAATGGAAAAAAAAA DNA 2: TTTTTTTTTCCATTACTTTAATTTTTTTTTTTTTTT	8.75 ln median PBM intensity, better of two orientations
CACACA_negctrl_site667 (dsDNA) DNA 1: TTATATATAAACATAAAAAGAAATATATTATGTATA DNA 2: TATACATAATATATTTCTTTTTATGTTTATATATAA	8.75 ln median PBM intensity, better of two orientations
CACACA_negctrl_site1075 (dsDNA) DNA 1: AATAAAAAAAAAAAAAAAAAAAAAAAGACACTAAAA DNA 2: TTTTAGTGTCTTTTTTTTTTTTTTTTTTTTTTTATT	8.75 ln median PBM intensity, better of two orientations
CACACA_negctrl_site1698 (dsDNA) DNA 1: TTATAATAAAAAAATTCCTAAGTCCGTATATATTAT DNA 2: ATAATATATACGGACTTAGGAATTTTTTTATTATAA	8.75 ln median PBM intensity, better of two orientations
CACACA_negctrl_site122 (dsDNA) DNA 1: TCTGGATTGGATTACAAGAAAATAAAATATAAAATA DNA 2: TATTTTATATTTTATTTTCTTGTAATCCAATCCAGA	8.76 ln median PBM intensity, better of two orientations
CACACA_negctrl_site1333 (dsDNA) DNA 1: AATTAAGTTAAACATTAAAAAAAACAAAAAATTAAA DNA 2: TTTAATTTTTTGTTTTTTTTAATGTTTAACTTAATT	8.76 ln median PBM intensity, better of two orientations
CACACA_negctrl_site1633 (dsDNA) DNA 1: AAAAATTAAAATATAACTAATTAATTTGTATTCATT DNA 2: AATGAATACAAATTAATTAGTTATATTTTAATTTTT	8.76 ln median PBM intensity, better of two orientations
CACACA_negctrl_site1605 (dsDNA) DNA 1: GTTTTTTTATAAAATTTTTATATAATTCTTTTATAA DNA 2: TTATAAAAGAATTATATAAAAATTTTATAAAAAAAC	8.77 ln median PBM intensity, better of two orientations
